From patent US20220363781A1 come the findings set out here.

The target of assay [1] is monkey TSLP-His (cynomolgus monkey, Macaca fascicularis) (cynomolgus monkey (Macaca fascicularis)). Description: BLI (Fortebio), antibody on ProA sensor, monkey TSLP 1.5625-100 nM, 1:1 model. A general note: Biolayer interferometry detects binding as a change in optical thickness at a sensor tip.
The target of assay [2] is human TSLP-His (human) (UniProt Q969D9). Description: ELISA, human TSLP-His coated on the plate, serially diluted antibody, HRP goat anti-human Fc, absorbance at 450 nm. On the technique in general: An ELISA detects its analyte on a solid surface through an enzyme-linked reagent.
Assay [3] has the same target. Briefly: ELISA, human TSLP-His coated, antibody titrated.
Assay [4] shares this target. Description: BLI (Fortebio), antibody on ProA sensor, human TSLP 1.5625-100 nM, 1:1 model.
For assay [5] the target is unchanged. Briefly: BLI (Fortebio), antibody on ProA sensor, human TSLP titrated, 1:1 model.
The target of assay [6] is monkey TSLP-His (cynomolgus monkey, Macaca fascicularis) (cynomolgus monkey (Macaca fascicularis)). Description: ELISA, monkey TSLP-His coated, antibody titrated, anti-human Fc-HRP.
The next assay has as its target FcRn (biotin-labeled). Description: BLI (Fortebio), biotin-FcRn on SA sensor, antibody 1.5625-200 nM, pH 6.0, 1:1 model.
In assay [7] the target is human TSLP-His (human) (UniProt Q969D9). Description: ELISA, human TSLP-His coated, antibody titrated, anti-human Fc-HRP.
In assay [8] the target is monkey TSLP-His (cynomolgus monkey, Macaca fascicularis) (cynomolgus monkey (Macaca fascicularis)). Briefly: ELISA, monkey TSLP-His coated, antibody titrated.
Assay [9] addresses human TSLP-His (human) (UniProt Q969D9). Description: cell-based or functional assay.
Assay [10] shares this target. Description: cell-based or functional assay. The source holds these as a separate data set.
The target is the same in assay [11]. Briefly: competitive ELISA, hIL7Rα-hTSLPR-hFc coated, hTSLP-His plus titrated antibody, anti-His-HRP.

pEC50, pIC50, pKd: −log10 of the molar value. Where two headings read alike, the source gives them in different places.

Chain of monkey TSLP-His (cynomolgus monkey, Macaca fascicularis) (cynomolgus monkey (Macaca fascicularis)) (chain, as listed by the source): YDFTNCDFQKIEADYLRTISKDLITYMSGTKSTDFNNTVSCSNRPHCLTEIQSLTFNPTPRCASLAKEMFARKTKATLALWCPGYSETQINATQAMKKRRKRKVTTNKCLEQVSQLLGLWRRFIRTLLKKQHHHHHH
Chain of human TSLP-His (human) (Q969D9 other isoform, or with tags, fused parts or gaps limits assumed): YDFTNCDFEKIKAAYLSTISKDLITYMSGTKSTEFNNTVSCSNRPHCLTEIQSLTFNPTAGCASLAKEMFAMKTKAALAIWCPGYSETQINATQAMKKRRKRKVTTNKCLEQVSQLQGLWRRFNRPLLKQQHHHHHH
Chain of FcRn (biotin-labeled) (P55899 24-297, chain 1 of 2): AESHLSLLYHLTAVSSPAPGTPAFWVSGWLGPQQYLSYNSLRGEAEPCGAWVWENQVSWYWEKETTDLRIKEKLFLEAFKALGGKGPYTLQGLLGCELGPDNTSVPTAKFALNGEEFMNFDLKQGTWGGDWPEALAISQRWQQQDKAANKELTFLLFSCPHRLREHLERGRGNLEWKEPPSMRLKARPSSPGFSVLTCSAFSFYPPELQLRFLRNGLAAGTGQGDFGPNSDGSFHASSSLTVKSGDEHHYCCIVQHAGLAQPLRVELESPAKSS
Chain of FcRn (biotin-labeled) (P61769 21-119, chain 2 of 2, further chain): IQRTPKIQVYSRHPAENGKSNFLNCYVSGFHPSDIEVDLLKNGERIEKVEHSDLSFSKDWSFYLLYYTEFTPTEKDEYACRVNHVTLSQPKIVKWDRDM

As usually defined, the pKd is −log10 of the Kd, conventionally taken in molar units. For orientation: EC50 (read off the curve) means the concentration at which the effect is half-maximal. A word on the pEC50: it is the EC50 on a negative log10 scale, so that one unit is a factor of ten. As a reminder, the pIC50 is the negative decadic logarithm of the IC50, by convention in mol/L. “Control antibody (control anti-TSLP antibody, chEMBL ID CHEMBL3707229)”: the negative-log Kd (pKd) in assay [1] is 8.94; with human TSLP-His (human) [4] it was 9.10; with human TSLP-His (human) [5] it was 9.43; in the assay with FcRn (biotin-labeled) it was 7.95. Besides, in the assay with human TSLP-His (human) [2], the half-maximal effective concentration (EC50 (read off the curve)) was determined as 0.4 µg/mL. The pEC50 with human TSLP-His (human) [3] is 9.63; in assay [6] it was 9.72; with human TSLP-His (human) [7], 8.85; in [8], 9.47. In the assay with human TSLP-His (human) [9], this substance showed an EC50, blocking human TSLP-induced proliferation of Ba/F3-hTSLPR-hIL7Rα cells (CCK8) of 0.05 nM. Besides, the EC50, inhibition of human TSLP-induced PBMC secretion of MDC in the assay with human TSLP-His (human) [9] amounted to 0.00563 nM. In the assay with human TSLP-His (human) [9], this substance gave an EC50, inhibition of human TSLP-induced PBMC secretion of TARC of 0.51 nM. Besides, the hTSLP EC50, inhibition of the proliferation of Ba/F3-hTSLPR-hIL7Rα cells was found to be 0.041 nM with human TSLP-His (human) [9] and 0.57 nM with human TSLP-His (human) [10]. Besides, in the assay with human TSLP-His (human) [11], the pIC50 was 9.03.
